Assay [1] deals with T1, IFNAR2/Ig fusion protein (IFNAR2 extracellular domain fused to the hinge, CH2 and CH3 domains of human IgG1) (human, UniProt P48551 27-243).
T1 construct: extracellular domain; also called IFNAR2/Fc; IFNAR2-Fc; not shown: human IgG1 constant region: hinge, CH2 and CH3 domains
T1 sequence (looked up): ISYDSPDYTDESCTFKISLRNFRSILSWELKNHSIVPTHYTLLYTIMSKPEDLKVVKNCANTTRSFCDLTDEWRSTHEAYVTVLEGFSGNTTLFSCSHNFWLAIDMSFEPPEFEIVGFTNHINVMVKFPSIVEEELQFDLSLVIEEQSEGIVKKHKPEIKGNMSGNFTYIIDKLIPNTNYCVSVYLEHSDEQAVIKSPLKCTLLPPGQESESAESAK
In words: ELISA on captured IFNAR2-Fc; reference, value not given. As for the experimental part: The receptor binding properties of the Interferon-beta mutants described in C were assessed using two different binding assays. One assay measured binding of the interferon-beta mutants to a fusion protein, IFNAR2/Ig, comprising the extracellular domain of the human IFNAR2 receptor chain fused to part of the constant region of a human IgG. IFNAR2-Fc was expressed in chinese hamster ovary (CHO) cells and purified by protein A sepharose affinity chromatography according to the instructions of the manufacturer (Pierce Chem. Co., Rockford, Ill., catalog #20334). The binding of interferon-beta mutants to IFNAR2-Fc was measured in an ELISA format assay. […] Binding of the interferon-beta mutants to IFNAR2-Fc was measured by adding 50 μl/well mutant interferon-beta in conditioned media, serially diluted in Dulbecco's Modified Eagle's Medium (DMEM) supplemented with 10% fetal bovine serum, and incubating for 2 hours at 4° C. […] After washing, interferon-beta bound to the plates was detected by adding 50 μl/well of a cocktail consisting of a 1:1000 dilution of a rabbit polyclonal anti-interferon antibody (#447) plus horseradish peroxidase (HRP)-labelled donkey anti-rabbit IgG (Jackson ImmunoResearch), and incubating for 15 minutes at 4° C. After two washes, HRP substrate was added, and the plate was incubated at 4° C. before being read on an ELISA plate reader at an absorbance of 450 nm. […]

Assay [2] deals with T1, IFNAR2/Ig fusion protein (IFNAR2 …). In words: ELISA; IFNAR2-Fc captured on anti-human IgG1 plate; mutant in conditioned medium. As to the method: (§1) The receptor binding properties of the Interferon-beta mutants described in C were assessed using two different binding assays. One assay measured binding of the interferon-beta mutants to a fusion protein, IFNAR2/Ig, comprising the extracellular domain of the human IFNAR2 receptor chain fused to part of the constant region of a human IgG. IFNAR2-Fc was expressed in chinese hamster ovary (CHO) cells and purified by protein A sepharose affinity chromatography according to the instructions of the manufacturer (Pierce Chem. Co., Rockford, Ill., catalog #20334). The binding of interferon-beta mutants to IFNAR2-Fc was measured in an ELISA format assay. ELISA plates were prepared by coating flat-bottomed 96 well plates overnight at 4° C. with 50 μl/well of mouse anti-human IgG1 monoclonal antibody (CDG5-AA9, Biogen, Inc.) at 10 μg/ml in coating buffer (50 mM NaHCO₃, 0.2 mM MgCl₂, 0.2 mM CaCl₂, pH 9.6). Plates were washed twice with PBS containing 0.05% Tween-20, and blocked with 0.5% non-fat dry milk in PBS for 1 hour at room temperature. After two more washes, 50 μl of 1 μg/ml IFNAR2-Fc in 0.5% milk in PBS containing 0.05% Tween-20 was added to each well and incubated for 1 hour at room temperature, and the plates were then washed twice more. Binding of the interferon-beta mutants to IFNAR2-Fc was measured by adding 50 μl/well mutant interferon-beta in conditioned media, serially diluted in Dulbecco's Modified Eagle's Medium (DMEM) supplemented with 10% fetal bovine serum, and incubating for 2 hours at 4° C. Dilutions of interferon-beta mutant typically ranged from approximately 1 μM down to 10 pM. After washing, interferon-beta bound to the plates was detected by adding 50 μl/well of a cocktail consisting of a 1:1000 dilution of a rabbit polyclonal anti-interferon antibody (#447) plus horseradish peroxidase (HRP)-labelled donkey anti-rabbit IgG (Jackson ImmunoResearch), and incubating for 15 minutes at 4° C. After two washes, HRP substrate was added, and the plate was incubated at 4° C. before being read on an ELISA plate reader at an absorbance of 450 nm. Data were plotted as absorbance versus the concentration of mutant interferon-beta, and the affinity for the binding of the mutant interferon-beta to IFNAR2-Fc was determined by fitting the data to a simple hyperbolic binding equation.

Assay [3] shares this target. In words: ELISA on captured IFNAR2-Fc. As to the method:
as §1

B1: his tagged-wild-type interferon-beta-1a (ligand)
chain: SGGHHHHHHSSGDDDDKMSYNLLGFLQRSSNFQCQKLLWQLNGRLEYCLKDRMNFDIPEEIKQLQQFQKEDAALTIYEMLQNIFAIFRQDSSSTGWNETIVENLLANVYHQINHLKTVLEEKLEKEDFTRGKLMSSLHLKRYYGRILHYLKAKEYSHCAWTIVRVEILRNFYFINRLTGYLRN
notes: Expressed in human EBNA 293 cells and tested as conditioned medium; also called wild type his-IFN-beta; w.t. his-IFN-beta
Turning to B1, the binding result in assay [1] was “binds”.

B2: his tagged-interferon-beta alanine substitution mutant AB2 (ligand)
chain: SGGHHHHHHSSGDDDDKMSYNLLGFLQRSSNFQCQKLLWQLNGRLEYCLKDRAAFAIPAEIKQLQQFQKEDAALTIYEMLQNIFAIFRQDSSSTGWNETIVENLLANVYHQINHLKTVLEEKLEKEDFTRGKLMSSLHLKRYYGRILHYLKAKEYSHCAWTIVRVEILRNFYFINRLTGYLRN
notes: Tested as EBNA 293 conditioned medium
B2: the binding result in assay [2] is “no binding”. Besides, in assay [3], the “EC50 relative to w.t. his-IFN-beta EC50” value is > 500 fold of w.t. his-IFN-beta EC50.

B3: his tagged-interferon-beta alanine substitution mutant AB1 (ligand)
chain: SGGHHHHHHSSGDDDDKMSYNLLGFLQRSSNFQCQKLLWQLNGRAAACAADRMNFDIPEEIKQLQQFQKEDAALTIYEMLQNIFAIFRQDSSSTGWNETIVENLLANVYHQINHLKTVLEEKLEKEDFTRGKLMSSLHLKRYYGRILHYLKAKEYSHCAWTIVRVEILRNFYFINRLTGYLRN
notes: as for B2
On to B3, for which the binding result in assay [2] is listed as “no binding”. Moreover, the “EC50 relative to w.t. his-IFN-beta EC50” value in assay [3] is > 500 fold of w.t. his-IFN-beta EC50.

B4: his tagged-interferon-beta alanine substitution mutant E (ligand)
chain: SGGHHHHHHSSGDDDDKMSYNLLGFLQRSSNFQCQKLLWQLNGRLEYCLKDRMNFDIPEEIKQLQQFQKEDAALTIYEMLQNIFAIFRQDSSSTGWNETIVENLLANVYHQINHLKTVLEEKLEKEDFTRGKLMSSLHLKRYYGRILHYLKAKEYSHCAWTIVRAEILANFAFIARLTGYLRN
notes: also called E helix mutant
As for B4, in assay [2], the binding result was “no binding”. Further, the “EC50 relative to w.t. his-IFN-beta EC50” value in assay [3] is > 500 fold of w.t. his-IFN-beta EC50.

B5: his tagged-interferon-beta alanine substitution mutant A2 (ligand)
chain: SGGHHHHHHSSGDDDDKMSYNLLGFLQRSSNAACAALLAALNGRLEYCLKDRMNFDIPEEIKQLQQFQKEDAALTIYEMLQNIFAIFRQDSSSTGWNETIVENLLANVYHQINHLKTVLEEKLEKEDFTRGKLMSSLHLKRYYGRILHYLKAKEYSHCAWTIVRVEILRNFYFINRLTGYLRN
notes: Tested as EBNA 293 conditioned medium; also called A2 helix mutant
B5: the binding result in assay [2] is “no binding”. The “EC50 relative to w.t. his-IFN-beta EC50” value in assay [3] is > 500 fold of w.t. his-IFN-beta EC50.
